US20180305431A1 (Novo Nordisk, published 2018)

Legend:
[1] = molecular target: membrane-associated human IR-A (plasma membranes of BHK cells stably transfected with the human IR-A insert) (human) (UniProt P06213); experiment: SPA competition vs [125I-A14Y]-human insulin, membrane hIR-A, 0.1% HSA
[2] = molecular target: T1, membrane-associated human IGF-1R (plasma membranes of BHK cells stably transfected with the human IGF-IR … (human, UniProt P08069 31-1367)); experiment: SPA competition vs [125I-Tyr31]-human IGF-1, membrane hIGF-1R, 0.1% HSA
T1 construct: whole, on cells; Receptor in purified plasma membranes, not on intact cells; also called hIGF1R; insulin-like growth factor 1 receptor
T1 sequence (P08069 31-1367): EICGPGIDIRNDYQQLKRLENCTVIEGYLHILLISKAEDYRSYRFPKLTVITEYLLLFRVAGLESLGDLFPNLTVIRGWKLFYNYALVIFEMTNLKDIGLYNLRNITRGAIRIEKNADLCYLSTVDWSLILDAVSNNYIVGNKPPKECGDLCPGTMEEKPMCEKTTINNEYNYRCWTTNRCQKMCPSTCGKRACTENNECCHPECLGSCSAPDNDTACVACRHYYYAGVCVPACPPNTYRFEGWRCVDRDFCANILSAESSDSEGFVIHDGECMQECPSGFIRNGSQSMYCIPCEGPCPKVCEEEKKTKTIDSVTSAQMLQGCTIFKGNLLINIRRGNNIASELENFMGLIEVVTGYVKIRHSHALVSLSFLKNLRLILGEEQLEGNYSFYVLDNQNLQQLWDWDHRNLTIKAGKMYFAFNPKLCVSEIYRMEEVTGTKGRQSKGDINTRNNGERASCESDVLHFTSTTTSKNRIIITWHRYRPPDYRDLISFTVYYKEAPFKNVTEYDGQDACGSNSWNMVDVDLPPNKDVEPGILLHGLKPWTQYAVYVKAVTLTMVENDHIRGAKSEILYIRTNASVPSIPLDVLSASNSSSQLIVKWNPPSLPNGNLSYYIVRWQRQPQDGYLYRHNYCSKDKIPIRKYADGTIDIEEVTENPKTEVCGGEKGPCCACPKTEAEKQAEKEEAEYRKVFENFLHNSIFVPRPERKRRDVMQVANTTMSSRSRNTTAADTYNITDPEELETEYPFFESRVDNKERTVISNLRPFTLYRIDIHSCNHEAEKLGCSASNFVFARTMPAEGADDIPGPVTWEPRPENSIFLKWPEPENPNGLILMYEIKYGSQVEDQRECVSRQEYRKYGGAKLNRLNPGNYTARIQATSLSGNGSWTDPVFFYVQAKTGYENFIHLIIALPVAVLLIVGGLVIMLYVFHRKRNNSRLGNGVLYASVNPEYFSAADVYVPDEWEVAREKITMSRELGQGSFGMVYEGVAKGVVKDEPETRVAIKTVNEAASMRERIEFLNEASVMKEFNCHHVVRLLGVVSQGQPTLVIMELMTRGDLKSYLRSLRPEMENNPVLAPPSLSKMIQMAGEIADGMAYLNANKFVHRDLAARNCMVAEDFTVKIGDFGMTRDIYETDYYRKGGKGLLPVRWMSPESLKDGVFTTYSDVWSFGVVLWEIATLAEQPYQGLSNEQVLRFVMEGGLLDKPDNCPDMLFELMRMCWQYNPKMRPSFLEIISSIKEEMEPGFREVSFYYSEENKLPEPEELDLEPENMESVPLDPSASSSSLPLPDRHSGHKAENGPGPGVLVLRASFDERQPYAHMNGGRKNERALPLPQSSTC
Protocol: The relative binding affinity for either of the membrane-associated human IR-A, IR-B or IGF-1R is determined by competition binding in a SPA setup. IR assays are performed in duplicate in 96-well OptiPlates (Perkin-Elmer Life Sciences). […] Assays are terminated by centrifugation of the plate at 2000 rpm for 2 minutes and bound radioactivity quantified by counting on a TopCount NXT (Perkin-Elmer Life Sciences).
IGF-1R assays are conducted essentially as for the IR binding assays except that membrane-associated IGF-1R and 50 pM [¹²5-Tyr31]-human IGF-1 were employed.

[3] = molecular target: T2, solubilised human IR-A (semipurified by wheat germ agglutinin chromatography from baby hamster kidney (BHK) … (human, UniProt P06213-2 28-1370)); experiment: SPA competition vs [125I-A14Y]-human insulin, solubilised hIR-A, 0% HSA
T2 construct: mature; Detergent-solubilised holoreceptor captured by anti-IR mouse antibody 83-7 on SPA beads; the precursor is processed into alpha and beta chains; also called hIRA; human insulin receptor (IR), A isoform
T2 sequence (P06213 other isoform, or with tags, fused parts or gaps limits assumed): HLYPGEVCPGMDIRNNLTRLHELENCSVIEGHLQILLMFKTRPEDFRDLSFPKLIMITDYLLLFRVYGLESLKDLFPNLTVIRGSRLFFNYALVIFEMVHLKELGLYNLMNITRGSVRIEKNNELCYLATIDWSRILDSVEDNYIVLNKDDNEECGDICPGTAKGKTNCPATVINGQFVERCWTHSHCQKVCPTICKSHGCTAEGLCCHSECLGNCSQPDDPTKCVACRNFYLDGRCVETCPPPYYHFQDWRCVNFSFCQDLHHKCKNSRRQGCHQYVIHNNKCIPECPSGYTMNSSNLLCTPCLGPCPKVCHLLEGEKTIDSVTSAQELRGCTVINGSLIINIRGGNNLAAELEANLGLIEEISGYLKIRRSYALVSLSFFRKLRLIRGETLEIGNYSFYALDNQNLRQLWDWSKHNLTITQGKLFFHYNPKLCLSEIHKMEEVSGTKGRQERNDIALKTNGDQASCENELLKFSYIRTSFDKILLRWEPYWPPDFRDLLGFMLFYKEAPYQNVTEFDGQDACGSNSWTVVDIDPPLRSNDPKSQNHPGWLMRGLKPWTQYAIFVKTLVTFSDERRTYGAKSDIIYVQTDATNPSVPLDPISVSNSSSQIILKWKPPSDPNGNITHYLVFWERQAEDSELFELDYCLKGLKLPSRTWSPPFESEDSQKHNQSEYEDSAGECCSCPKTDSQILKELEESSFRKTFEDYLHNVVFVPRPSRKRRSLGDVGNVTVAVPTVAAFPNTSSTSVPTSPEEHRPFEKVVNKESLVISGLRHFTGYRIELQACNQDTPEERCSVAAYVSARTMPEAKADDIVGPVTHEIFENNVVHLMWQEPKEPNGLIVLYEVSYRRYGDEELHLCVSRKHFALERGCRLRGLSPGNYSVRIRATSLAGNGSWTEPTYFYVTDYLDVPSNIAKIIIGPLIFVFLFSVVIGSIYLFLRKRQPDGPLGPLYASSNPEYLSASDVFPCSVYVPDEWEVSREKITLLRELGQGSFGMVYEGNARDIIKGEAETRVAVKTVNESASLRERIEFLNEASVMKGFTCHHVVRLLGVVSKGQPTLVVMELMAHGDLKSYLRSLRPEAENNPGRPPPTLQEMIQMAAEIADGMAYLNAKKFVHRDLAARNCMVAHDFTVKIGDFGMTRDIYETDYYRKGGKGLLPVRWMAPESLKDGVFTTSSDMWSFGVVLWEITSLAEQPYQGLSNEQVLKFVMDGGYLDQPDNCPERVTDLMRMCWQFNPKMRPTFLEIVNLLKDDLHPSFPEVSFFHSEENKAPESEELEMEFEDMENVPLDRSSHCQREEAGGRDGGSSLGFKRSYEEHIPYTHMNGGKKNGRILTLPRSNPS

[4] = molecular target: membrane-associated human IR-B (plasma membranes of BHK cells stably transfected with the human IR-B insert) (human) (UniProt P06213); experiment: SPA competition vs [125I-A14Y]-human insulin, membrane hIR-B, 0.1% HSA
Chain of membrane-associated human IR-B (plasma membranes of BHK cells stably transfected with the human IR-B insert) (human) (P06213 28-1382): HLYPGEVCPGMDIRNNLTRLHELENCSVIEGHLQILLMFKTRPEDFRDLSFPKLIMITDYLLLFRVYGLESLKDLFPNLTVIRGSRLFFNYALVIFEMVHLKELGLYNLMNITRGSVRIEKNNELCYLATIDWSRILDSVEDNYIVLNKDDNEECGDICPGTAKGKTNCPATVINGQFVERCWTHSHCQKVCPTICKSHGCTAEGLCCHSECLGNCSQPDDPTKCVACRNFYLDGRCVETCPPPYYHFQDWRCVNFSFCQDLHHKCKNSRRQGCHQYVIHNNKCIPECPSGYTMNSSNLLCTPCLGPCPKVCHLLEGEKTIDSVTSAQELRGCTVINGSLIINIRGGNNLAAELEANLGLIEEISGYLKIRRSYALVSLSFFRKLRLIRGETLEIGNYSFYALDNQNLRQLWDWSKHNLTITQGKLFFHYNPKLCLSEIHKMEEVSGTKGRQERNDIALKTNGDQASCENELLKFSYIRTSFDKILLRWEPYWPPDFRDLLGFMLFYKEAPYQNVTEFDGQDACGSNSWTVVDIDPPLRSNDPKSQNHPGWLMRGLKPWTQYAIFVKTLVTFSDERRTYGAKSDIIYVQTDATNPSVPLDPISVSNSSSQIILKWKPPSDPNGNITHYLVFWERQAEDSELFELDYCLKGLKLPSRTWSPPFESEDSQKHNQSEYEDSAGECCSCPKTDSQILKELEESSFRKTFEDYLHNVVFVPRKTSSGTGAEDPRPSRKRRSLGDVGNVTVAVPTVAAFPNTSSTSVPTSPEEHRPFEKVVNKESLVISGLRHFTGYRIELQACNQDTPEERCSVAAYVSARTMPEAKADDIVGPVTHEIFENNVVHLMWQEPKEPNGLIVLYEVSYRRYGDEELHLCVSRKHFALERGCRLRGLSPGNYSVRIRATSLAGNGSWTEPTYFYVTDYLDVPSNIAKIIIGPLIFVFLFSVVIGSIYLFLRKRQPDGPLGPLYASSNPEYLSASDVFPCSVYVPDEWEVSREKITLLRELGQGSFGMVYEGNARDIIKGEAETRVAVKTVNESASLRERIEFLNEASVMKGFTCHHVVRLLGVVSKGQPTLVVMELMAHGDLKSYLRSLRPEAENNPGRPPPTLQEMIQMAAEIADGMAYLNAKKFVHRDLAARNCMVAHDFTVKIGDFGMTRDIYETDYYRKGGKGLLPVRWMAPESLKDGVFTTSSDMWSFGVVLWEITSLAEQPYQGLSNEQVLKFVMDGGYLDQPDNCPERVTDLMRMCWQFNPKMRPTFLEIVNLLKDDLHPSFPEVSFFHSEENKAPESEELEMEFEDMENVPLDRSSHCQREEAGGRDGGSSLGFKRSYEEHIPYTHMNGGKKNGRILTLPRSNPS

[5] = molecular target: insulin receptor on primary rat adipocytes (rat) (UniProt P15127); experiment: cell-based or functional assay
[6] = molecular target: T2, solubilised human IR-A (semipurified by …); experiment: SPA competition vs [125I-A14Y]-human insulin, solubilised hIR-A, 1.5% HSA

B1: A14E, A22K(N(eps)hexadecanedioyl-gGlu-2xOEG), B3E, B27E, B28E, B29R, desB30 human insulin (ligand)
chain 1: GIVEQCCTSICSLEQLENYCNK
chain 2: FVEQHLCGSHLVEALYLVCGERGFFYEER
modifications: not fully specified; Lys A22 acylated on N(eps) with hexadecanedioyl-gGlu-2xOEG
notes: Two-chain acylated insulin analogue; also called Ex. No. 26
With B1 the relative binding affinity (% rel to HI) [1] was 19.3 % rel to HI, the “relative binding affinity (% rel to HI)” value [2] was 28.7 % rel to HI and the “relative binding affinity (% rel to HI)” value [3] was 63.7 % rel to HI. For the same binder, the relative binding affinity (% rel to HI) [4] was 28.7 % rel to HI, the Lipogenesis 1% HSA (% rel to HI) [5] was 2.6 % rel to HI and the “relative binding affinity (% rel to HI)” value [6] was 7.4 % rel to HI.

B2: A14E, A22K(N(eps)tetradecanedioyl-4xgGlu), B3E, B27E, B28E, B29R, desB30 human insulin (ligand)
chain 1: GIVEQCCTSICSLEQLENYCNK
chain 2: FVEQHLCGSHLVEALYLVCGERGFFYEER
modifications: not fully specified; Lys A22 acylated on N(eps) with tetradecanedioyl-4xgGlu
notes: Two-chain acylated insulin analogue; also called Ex. No. 4
For B2, the relative binding affinity (% rel to HI) [1] was 36.6 % rel to HI, the “relative binding affinity (% rel to HI)” value [2] was 28.6 % rel to HI and the “relative binding affinity (% rel to HI)” value [3] was 47.4 % rel to HI. The relative binding affinity (% rel to HI) [4] was 56.6 % rel to HI, the Lipogenesis 1% HSA (% rel to HI) [5] was 15.4 % rel to HI and the “relative binding affinity (% rel to HI)” value [6] was 44.9 % rel to HI.

B3: A14E, A22K(N(eps)tetradecanedioyl-4xgGlu), B3Q, B27E, B28E, B29R, desB30 human insulin (ligand)
chain 1: GIVEQCCTSICSLEQLENYCNK
chain 2: FVQQHLCGSHLVEALYLVCGERGFFYEER
modifications: not fully specified; Lys A22 acylated on N(eps) with tetradecanedioyl-4xgGlu
notes: also called Ex. No. 9
B3 was tested, and the relative binding affinity (% rel to HI) [1] was 36.8 % rel to HI, the “relative binding affinity (% rel to HI)” value [2] was 29.5 % rel to HI and the “relative binding affinity (% rel to HI)” value [3] was 83 % rel to HI. The relative binding affinity (% rel to HI) [4] was 68.7 % rel to HI, the Lipogenesis 1% HSA (% rel to HI) [5] was 30.1 % rel to HI and the “relative binding affinity (% rel to HI)” value [6] was 70.2 % rel to HI.

B4: A14E, A22K(N(eps)tetradecanedioyl-gGlu-2xOEG), B3E, B27E, B28E, B29R, desB30 human insulin (ligand)
chain 1: GIVEQCCTSICSLEQLENYCNK
chain 2: FVEQHLCGSHLVEALYLVCGERGFFYEER
modifications: not fully specified; Lys A22 acylated on N(eps) with tetradecanedioyl-gGlu-2xOEG
notes: Two-chain acylated insulin analogue; also called Ex. No. 2
In the case of B4, the relative binding affinity (% rel to HI) [1] is reported as 50.1 % rel to HI, the “relative binding affinity (% rel to HI)” value [2] is reported as 36.6 % rel to HI and the “relative binding affinity (% rel to HI)” value [3] is reported as 60.4 % rel to HI. The relative binding affinity (% rel to HI) [4] was 70.2 % rel to HI, the Lipogenesis 1% HSA (% rel to HI) [5] was 14.2 % rel to HI and the “relative binding affinity (% rel to HI)” value [6] was 38.9 % rel to HI.

B5: A14E, A22K(N(eps)tetradecanedioyl-4xgGlu), B3Q, B28D, B29R, desB30 human insulin (ligand)
chain 1: GIVEQCCTSICSLEQLENYCNK
chain 2: FVQQHLCGSHLVEALYLVCGERGFFYTDR
modifications: not fully specified; Lys A22 acylated on N(eps) with tetradecanedioyl-4xgGlu
notes: also called Ex. No. 8
For B5, the relative binding affinity (% rel to HI) [1] was 34.3 % rel to HI, the “relative binding affinity (% rel to HI)” value [2] was 42 % rel to HI and the “relative binding affinity (% rel to HI)” value [3] was 95.6 % rel to HI. For the same binder, the relative binding affinity (% rel to HI) [4] was 59.1 % rel to HI, the Lipogenesis 1% HSA (% rel to HI) [5] was 17.2 % rel to HI and the “relative binding affinity (% rel to HI)” value [6] was 64.9 % rel to HI.

B6: A8R, A22K(N(eps)tetradecanedioyl-4xgGlu), B3E, B26E, B27E, B28R, desB29, desB30 human insulin (ligand)
chain 1: GIVEQCCRSICSLYQLENYCNK
chain 2: FVEQHLCGSHLVEALYLVCGERGFFEER
modifications: not fully specified; Lys A22 acylated on N(eps) with tetradecanedioyl-4xgGlu
notes: Two-chain acylated insulin analogue; also called Ex. No. 19
In the case of B6, the relative binding affinity (% rel to HI) [1] is reported as 88.8 % rel to HI, the “relative binding affinity (% rel to HI)” value [2] is reported as 22.6 % rel to HI and the “relative binding affinity (% rel to HI)” value [3] is reported as 260 % rel to HI. For the same binder, the relative binding affinity (% rel to HI) [4] was 155 % rel to HI, the Lipogenesis 1% HSA (% rel to HI) [5] was 80.3 % rel to HI and the “relative binding affinity (% rel to HI)” value [6] was 188 % rel to HI.

B7: A8R, A22K(N(eps)tetradecanedioyl-4xgGlu), B3E, B26E, B27P, B28R, desB29, desB30 human insulin (ligand)
chain 1: GIVEQCCRSICSLYQLENYCNK
chain 2: FVEQHLCGSHLVEALYLVCGERGFFEPR
modifications: not fully specified; Lys A22 acylated on N(eps) with tetradecanedioyl-4xgGlu
notes: also called Ex. No. 16
For B7, the relative binding affinity (% rel to HI) [1] was 113 % rel to HI, the “relative binding affinity (% rel to HI)” value [2] was 61.8 % rel to HI and the “relative binding affinity (% rel to HI)” value [3] was 317 % rel to HI. The relative binding affinity (% rel to HI) [4] was 168 % rel to HI, the Lipogenesis 1% HSA (% rel to HI) [5] was 130 % rel to HI and the “relative binding affinity (% rel to HI)” value [6] was 229 % rel to HI.

B8: A8R, A22K(N(eps)tetradecanedioyl-4xgGlu), B3E, B27E, B28R, desB29, desB30 human insulin (ligand)
chain 1: GIVEQCCRSICSLYQLENYCNK
chain 2: FVEQHLCGSHLVEALYLVCGERGFFYER
modifications: not fully specified; Lys A22 acylated on N(eps) with tetradecanedioyl-4xgGlu
notes: Two-chain acylated insulin analogue; also called Ex. No. 17
In the case of B8, the relative binding affinity (% rel to HI) [1] is reported as 85.2 % rel to HI, the “relative binding affinity (% rel to HI)” value [2] is reported as 32.9 % rel to HI and the “relative binding affinity (% rel to HI)” value [3] is reported as 243 % rel to HI. The relative binding affinity (% rel to HI) [4] was 130 % rel to HI, the Lipogenesis 1% HSA (% rel to HI) [5] was 70.7 % rel to HI and the “relative binding affinity (% rel to HI)” value [6] was 163 % rel to HI.
